Key:
[1] = test system: IL12Rβ1-LS-IL12
[2] = test system: Mouse IL12 (unmodified)
[3] = test system: IL12Rβ1-VP-IL12

Sequence of Recombinant mouse matrix metalloproteinase-2 (MMP2) (chain, as listed by the source): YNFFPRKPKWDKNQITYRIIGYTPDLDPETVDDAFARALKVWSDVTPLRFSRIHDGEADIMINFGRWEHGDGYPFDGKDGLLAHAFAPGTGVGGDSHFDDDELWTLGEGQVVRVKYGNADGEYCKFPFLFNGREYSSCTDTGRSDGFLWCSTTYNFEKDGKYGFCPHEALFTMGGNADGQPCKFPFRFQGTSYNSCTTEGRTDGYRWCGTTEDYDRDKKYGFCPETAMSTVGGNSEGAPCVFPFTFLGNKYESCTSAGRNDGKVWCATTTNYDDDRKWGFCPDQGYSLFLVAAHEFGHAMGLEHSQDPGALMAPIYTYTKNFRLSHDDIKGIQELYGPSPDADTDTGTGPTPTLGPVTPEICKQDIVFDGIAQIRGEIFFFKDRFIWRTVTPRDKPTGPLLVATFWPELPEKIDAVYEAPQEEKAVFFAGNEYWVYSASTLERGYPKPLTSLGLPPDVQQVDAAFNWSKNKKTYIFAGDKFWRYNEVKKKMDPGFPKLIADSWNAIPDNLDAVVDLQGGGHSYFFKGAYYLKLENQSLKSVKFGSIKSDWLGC
Sequence of Mouse IL12 (unmodified) (chain, as listed by the source, chain 1 of 2): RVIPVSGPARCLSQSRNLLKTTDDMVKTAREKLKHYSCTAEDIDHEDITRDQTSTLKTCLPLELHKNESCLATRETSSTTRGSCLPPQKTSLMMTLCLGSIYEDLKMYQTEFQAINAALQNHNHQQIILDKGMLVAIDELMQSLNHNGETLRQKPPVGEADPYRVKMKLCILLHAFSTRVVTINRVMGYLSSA
Sequence of Mouse IL12 (unmodified) (chain, as listed by the source, chain 2 of 2): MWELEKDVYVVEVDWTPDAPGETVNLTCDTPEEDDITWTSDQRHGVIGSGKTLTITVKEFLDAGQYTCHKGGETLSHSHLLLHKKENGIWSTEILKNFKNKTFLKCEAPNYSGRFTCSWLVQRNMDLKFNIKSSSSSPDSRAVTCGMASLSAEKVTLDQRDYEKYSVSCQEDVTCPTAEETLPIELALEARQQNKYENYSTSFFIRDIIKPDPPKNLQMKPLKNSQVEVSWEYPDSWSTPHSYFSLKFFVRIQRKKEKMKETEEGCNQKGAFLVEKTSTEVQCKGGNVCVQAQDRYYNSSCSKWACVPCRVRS
Sequence of IL12Rβ1-LS-IL12 (chain, as listed by the source, chain 1 of 2): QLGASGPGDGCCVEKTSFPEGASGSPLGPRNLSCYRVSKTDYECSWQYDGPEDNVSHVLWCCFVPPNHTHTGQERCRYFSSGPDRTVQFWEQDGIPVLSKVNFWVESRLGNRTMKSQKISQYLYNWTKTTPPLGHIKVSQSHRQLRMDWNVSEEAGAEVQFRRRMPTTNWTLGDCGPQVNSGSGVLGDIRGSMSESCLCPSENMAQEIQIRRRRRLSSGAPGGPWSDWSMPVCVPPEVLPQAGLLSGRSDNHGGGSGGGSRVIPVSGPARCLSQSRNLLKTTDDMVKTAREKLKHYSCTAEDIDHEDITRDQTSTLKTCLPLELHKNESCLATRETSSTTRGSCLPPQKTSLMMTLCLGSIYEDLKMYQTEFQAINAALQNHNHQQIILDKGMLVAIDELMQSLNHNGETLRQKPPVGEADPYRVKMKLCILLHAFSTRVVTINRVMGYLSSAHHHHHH
Sequence of IL12Rβ1-LS-IL12 (chain, as listed by the source, chain 2 of 2): as the sequence (chain, as listed by the source, chain 2 of 2) above

| Substance | proteolytic cleavage, SDS-PAGE [1] | proteolytic cleavage, SDS-PAGE [2] | proteolytic cleavage, SDS-PAGE (30 min, 37 C) [3] |
| --- | --- | --- | --- |
| Recombinant human urokinase plasminogen activator (uPA) | IL12Rβ1-LS-IL12 containing LSGRSDNH (SEQ ID NO:49) substrate was cleaved by uPA | These enzymes had no effect on IL12 itself | – |
| Recombinant mouse matrix metalloproteinase-2 (MMP2) | – | These enzymes had no effect on IL12 itself | MMP2 and MMP9 fully cleaved the IL12Rβ1 portion, yielding IL12 heterodimer (-60 kDa) |
